Laboratory results from the supplement of paper PMC9170038.

Test system: MS2 coat protein
Experiment: apparent KD of MS2 coat protein; designed switch direction (-1 OFF switch, 1 ON switch): -1; higher = weaker reporter binding
Procedure, shortened: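 The apparent KD reported per design is the median over clusters of curve fits to normalised cluster fluorescence. The RNA switches were transcribed on Illumina chips by stalled E. coli RNA polymerase. SNAP-549-labelled MS2 coat protein was titrated from 0.7 or 1.5 nM, doubling up to 3 µM, in Tris-HCl pH 7.5 buffer containing KCl, MgCl2, BSA, DTT, tRNA and Tween-20, with no input, 200 uM small-molecule ligand, or an oligonucleotide input.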

[1] = input ligand: microRNA oligo, concentration not stated
[2] = Eterna round: R95, input ligand: FMN 200 uM
[3] = Eterna round: R95, input ligand: microRNA oligo, concentration not stated
[4] = Eterna round: R95, input ligand: none

Row | Sequence | apparent KD of MS2 coat protein (input ligand: FMN 200 uM) [µM] | apparent KD of MS2 coat protein [1] [µM] | apparent KD of MS2 coat protein (input ligand: none) [µM] | apparent KD of MS2 coat protein [2] [µM] | apparent KD of MS2 coat protein [3] [µM] | apparent KD of MS2 coat protein [4] [µM]
1 | GCGCCAUCGUGAGAUGGCGUAAUUACAUGAGGAUCACCCAUGUAGGAUAUCGAUUGCUUUGCAGUCGAGAAGGGCGUGAUAAUU [JL ENG3 3.70] (Eterna round: R96, puzzle: Exclusion NG 3) | 0.0777 | 0.0525 | 0.0755 |  |  | 
2 | AGGAGCCCACGGGCUCCAAAACAUGAGGAUCACCCAUGUCAGUAGGAUAUCAUGCUUUUCUGCUGUGAGAAGGGCUGAUGUGGC [Esededor] (Eterna round: R96, puzzle: Exclusion NG 3) | 0.199 | 0.0338 | 0.049 |  |  | 
3 | CCGGCUGCUGUGAGGAUAUGCCUGCGCGCCCGCGGGCAGAAGGCACAUGAGGAUCACCCAUGUCCUGCGGUCCC [salish99_bmx4_r4_119] (Eterna round: R97, puzzle: Brourd's mod of Exclusion 4) | 0.0452 |  | 0.0182 |  |  | 
4 | GAGUGGCAAGGAUAUACAGAGGAGAGGAAGGCAAGAGGUGGACAUGAGGAUCACCCAUGUAGAAGGUGCAGAGG [JR_Exclu2_Sub025] (puzzle: Exclusion 2) |  |  |  | 0.157 | 0.134 | 0.288
5 | GACUAAAUGUGGUUUGGUUACAUGAGGAUCACCCAUGUUGGUCUAAGAACAUGUCUUUUGUACGCUUGUCUUAUAUA [JR_SV3TOV1_Sub067] (puzzle: Sensor v3, turn-off variant 1) |  |  |  | 0.63 | 0.324 | 0.896
6 | GAUUAUGCGAGCUUUAGGGACAUGAGGAUCACCCAUGUUCGUCUUAUUAAUCUGGGUACACUGGCAUACCUAAAUCU [JMF 7] (puzzle: Sensor v3, turn-off variant 1) |  |  |  | 0.0267 | 0.0377 | 0.0281
7 | GUGUGCAGAGGAUAUACAUAGGAAAAUAAAAGAGAAGUGGGACAUGAGGAUCACCCAUGUAGAAGGCUGAGUGU [Excluse me!! 22 - Jieux - Exclusion 2] (puzzle: Exclusion 2) |  |  |  | 0.0899 | 0.0737 | 0.0728
8 | GGCAUGUAAGGAUAUGCCACUGAGUGCUUUGCGCUCAGUAAGCAGAAGGUACAUGAGGAUCACCCAUGUGAUAA [jl-ex4-4.54 ViennaUCT mod] (Eterna round: R97, puzzle: Exclusion 4) | 0.136 |  | 0.653 |  |  | 
9 | GUCAGCUCGUCAGGAUAUAUAUACAUGAGGAUCACCCAUGUAAGAUCAGGCUUCGGCCAAUGUAUAUAGAAGGGACGAGCUGAU [ENG2/11-B2] (Eterna round: R96, puzzle: Exclusion NG 2) | 0.721 | 0.458 | 0.81 |  |  | 
10 | CCACGUCCGUACGUGUACUUGUCUCCUGUGUGCCCGGGUACAUGAGGAUCACCCAUGUCUGUGCUCGCCUUCUGCCC [JR_Sensorv2_tov2_Sub724] (Eterna round: R96, puzzle: Sensor v2, turn-off variant 2) | 0.126 | 0.0847 | 0.165 |  |  | 
11 | ACGCUACAUGAGGAUCACCCAUGUGAGGAUAUUUGAUCCAGGCAGCAAAGGAUGAUACGGAGAAGGUACAUGGU [Eternabot (L1) Solution 35] (Eterna round: R97, puzzle: Exclusion 1) | 0.265 |  | 0.147 |  |  | 
12 | UAAGUUUUGGUAGGAUAUACUUUAAAUUUCUCUAUCCAUACAUGAGGAUCACCCAUGUUUACAUUGUAGAAGGACCACUAUGUU [JR_ExcNG2_Sub056] (Eterna round: R96, puzzle: Exclusion NG 2) |  | 0.0187 |  |  |  | 
13 | GUACUGACAGGAUAUACAUGAGGAUCACCCAUGUGCCUUAAUGCUACAAAAGUAGCGAGUAGAAGGGUCUGUAC [Omei Ex3 Model Bachelor's Dilema v12] (Eterna round: R97, puzzle: Exclusion 3) | 0.119 |  | 0.0207 |  |  | 
14 | AGUCCUAGUCAAGGAUAUACACCGAAGAAAUACGUAGAAGGUGACAUGAGGAUCACCCAUGUAGGGACUCUGGAAACAGAGGAA [Arordi] (Eterna round: R96, puzzle: Exclusion NG 1) | 0.161 | 0.0934 | 0.218 |  |  | 
15 | UAUAUAUAGUAAGGAUAUGUAAUUAUUUUAUAGACAGAAGGUACUGACAUGAGGAUCACCCAUGUUUUAGUGUGGGCAUGUAGA [JMF's solution 50] (Eterna round: R96, puzzle: Exclusion NG 1) |  | 0.0609 |  |  |  | 
16 | GCAGCAUAUGUAGGAUAUCUGCACGAUUAGUGCAGAGAAGGACAUGAGGAUCACCCAUGUAAUUAAGAUCAAUUAUUAAGCUGC [ENG1/4-A1] (Eterna round: R96, puzzle: Exclusion NG 1) | 0.0333 | 0.0156 | 0.0228 |  |  | 
17 | GCGAAAGCAACAAGUGAAAACAUGAGGAUCACCCAUGUCCUCAUUUGCUCGUCUUAUAAGCUAUGCGAAAGCAUAGC [Sensor 3, v1 - 10] (puzzle: Sensor v3, turn-off variant 1) |  |  |  | 0.0524 | 0.511 | 0.0744

Row | Sequence | apparent KD of MS2 coat protein (input ligand: FMN 200 uM) [µM] | apparent KD of MS2 coat protein [1] [µM] | apparent KD of MS2 coat protein (input ligand: none) [µM] | apparent KD of MS2 coat protein [2] [µM] | apparent KD of MS2 coat protein [3] [µM] | apparent KD of MS2 coat protein [4] [µM]
18 | UGAUCUAGCGGAGGAUAUACAUGAGGAUCACCCAUGUAUAGGCUAUGACCGUAGUCGUGGCACGUGUAGAAGGCCGCUAGAUCU [JL ENG2 3.77] (Eterna round: R96, puzzle: Exclusion NG 2) | 0.0127 | 0.0081 | 0.0128 |  |  | 
19 | ACUCGCACUGUAAGGAUAUGCAAUUACGAAAGUGAGCAGAAGGUACAUGAGGAUCACCCAUGUGCGAAUCAGUG [Eternabot (Original) Solution 36] (Eterna round: R97, puzzle: Brourd's mod of Exclusion 4) | 0.0189 |  | 0.02 |  |  | 
20 | CUUUUGUGAGGAUAUUAUUAGUAAAUAAAUAAAAUUACUACUGAGAAGGCACAUGAGGAUCACCCAUGUUCCUC [salish99_ex4_r3_048] (puzzle: Exclusion 4) |  |  |  |  | 0.0288 | 
21 | CAUACAGUAGUUAGGAUAUUGCAACGUACACGGAACGAGAAGGGACAUGAGGAUCACCCAUGUAGAUUGUAAAG [EX-4 Malc #8] (puzzle: Brourd's mod of Exclusion 4) |  |  |  |  | 0.02 | 
22 | GGGAAGGGAGGAUAUGAGGAGGAGAACAUGAGGAUCACCCAUGUGAGGCCUCAGGAUCAAUCAGAAGGCCCGAUCC [AK-MS2ROC-r4-exclusion5-15.1] (Eterna round: R97, puzzle: Exclusion 5) | 0.0781 |  | 0.026 |  |  | 
23 | AAGUAGACAGUGAGGAUAUUGGUGGAAUGACACAUUAAGAAGGUACAUGAGGAUCACCCAUGUGGGUAAUGUCG [Brourd's EX4 #26] (Eterna round: R97, puzzle: Brourd's mod of Exclusion 4) | 0.0648 |  | 0.0458 |  |  | 
24 | UGAGUAGAUCCGAAGGGAGACAUGAGGAUCACCCAUGUAUUAAGUUUUUAUGCUCGUCGCCUACGUAACCGUAGGAC [Eternabot (Original) Solution 2] (Eterna round: R97, puzzle: Sensor, turn-off variant 1) | 0.344 |  | 0.36 |  |  | 
25 | GUCAUCACACAUGGGAUCAACAUGAGGAUCACCCAUGUUGCCAAGUUGUUUGCACGUCUUAUAAUACGUUUUUCGAG [Mod-Jxg] (Eterna round: R97, puzzle: Sensor, turn-off variant 1) | 0.0216 |  | 0.0282 |  |  | 
26 | GAUCCUUUUACGGACGUCUCGAAACAUGAGGAUCACCCAUGUGAGGAUAUCUCCGAGAGAUCGGCAGAGAAGGCACAAUAACAA [MOD Eternabot solution 19 score 84.66] (Eterna round: R96, puzzle: Exclusion NG 3) | 0.0914 | 0.0197 | 0.0503 |  |  | 
27 | UCGUGUAUAGAGGAUAUAUUAUUUUUUUUAACAAUAGAAGGCUAAACAUGAGGAUCACCCAUGUAUUUGGUUUU [JR_Ex6_Sub051] (Eterna round: R97, puzzle: Exclusion 6) | 0.0692 |  | 0.0229 |  |  | 
28 | AUAGGGUCAGGAUAUACGAGCAGGAGGAUGGAGCGGAGGCGGUAGAAGGGACAUGAGGAUCACCCAUGUAAGAA [JR_Exclu4_Sub052] (puzzle: Exclusion 4) |  |  |  | 0.0214 | 0.0163 | 0.0192
29 | CUUUUGUGAGGAUAUCAGUAGUAAUACAAUAGUAUUACUAUUGAGAAGGCACAUGAGGAUCACCCAUGUUCCUC [Ex4 344 Omei mod 6] (puzzle: Exclusion 4) |  |  |  |  | 0.038 | 
30 | AUUAGCGUAGGAUAUUGAAACAUGUACAUGAGGAUCACCCAUGUGAGGUGAGUCUUCGUUUAAGAAGGGCGCAGAA [EX5 #40] (Eterna round: R97, puzzle: Exclusion 5) | 0.213 |  | 1.03 |  |  | 
31 | CGUAAAAGGUAGGAUAUGCUAGACGAAAGUCUAGCAGAAGGACCUACAUGAGGAUCACCCAUGUGUCCAAUACG [Mat - Exclusion 6 - Eli Mod - D22] (Eterna round: R97, puzzle: Exclusion 6) | 0.0507 |  | 0.117 |  |  | 
32 | GCAUGGAAAGUGAGGAUAUACCACUGGAUACAGUGGUAGAAGGCACAUGAGGAUCACCCAUGUUCCUACCAUGC [Fiskers BMX 4 - 39] (puzzle: Brourd's mod of Exclusion 4) |  |  |  |  | 0.015 | 
33 | CUCUGUGCAAAGGAUAUGUGAACAGGUCUAAUAACAGAAGGUUGCACUUGAGGAUCACCCAAGUUAAAGGGACC [Ortebi] (Eterna round: R97, puzzle: Exclusion 6) | 0.517 |  | 0.462 |  |  | 
34 | GUGCAGGUAGGAUAUCCACCGGCAAACAUGAGGAUCACCCAUGUGACGCUCCCUUGUCUUGGAGAAGGGCCGGCAU [Xetemaaren] (puzzle: Exclusion 5) |  |  |  |  | 0.0252 | 
